From publication PMC7655957, “A tunable LIC1-adaptor interaction modulates dynein activity in a cargo-specific manner” (Nature Communications, 2020) come the findings set out here.

What is called Kd is the concentration at which binding is half-saturated. In general, stoichiometry N refers to the number of molecules, sites or subunits per partner or assembly.

The chains are these.
B1: FIP3_(206–270), EF-hand pair of Rab11 family-interacting protein 3 (domain or fragment, human, UniProt O75154-1 206-270, looked up)
chain: RLRAVFDALDGDGDGFVRIEDFIQFATVYGAEQVKDLTKYLDPSGLGVISFEDFYQGITAIRNGD
notes: Cloned into pMAL-c2X
B2: NIN_(1–87), first EF-hand pair of Ninein (domain or fragment, human, UniProt Q8N4C6-1 1-87, looked up)
chain: MDEVEQDQHEARLKELFDSFDTTGTGSLGQEELTDLCHMLSLEEVAPVLQQTLLQDNLLGRVHFDQFKEALILILSRTLSNEEHFQE
notes: NIN (Ninein), human, UniProt Q8N4C6-1, residues 1-87 (EF-hand pair); Cloned into pMAL-c2X
B3: MBP-CRACR2a_(47–122), EF-hand pair of calcium release-activated calcium channel regulator 2A (domain or fragment, human, UniProt Q9BSW2-1 47-122, looked up)
chain: GQLVMLRKAQEFFQTCDAEGKGFIARKDMQRLHKELPLSLEELEDVFDALDADGNGYLTPQEFTTGFSHFFFSQNN
notes: Cloned into pMAL-c2X; the MBP tag was not removed for the ITC experiments; also called Ca^2+-CRACR2a; not shown: MBP, N-terminal, kept

Common to all, as to details: both partners purified
Test [1] addresses T1, MBP-LIC1FL, full-length dynein light intermediate chain-1 (human, UniProt Q9Y6G9 1-523).
T1 construct: cytoplasmic dynein-1 light intermediate chain-1 (LIC1), human, full length; also called MBP-LICFL; full-length LIC1
Nature of the test: ITC; EF-hand pairs titrated into MBP-LIC1FL; 20 mM HEPES (pH 7.5), 100 mM NaCl, 0.5 mM TCEP, 5 mM CaCl2; 20 or 30 °C. (In ITC the heat of successive injections is recorded.)

In test [2] the target is B1. The test is described as follows: ITC; EF-hand pairs titrated into LIC1_(433–458); 20 mM HEPES (pH 7.5), 100 mM NaCl, 0.5 mM TCEP; 5 mM CaCl2 or 5 mM EGTA as indicated in the figure; 20 or 30 °C.
Test [3] has as its target B2. The test is described as above.
Test [4] deals with B3. The description is as above.

T1 sequence (Q9Y6G9 whole entry): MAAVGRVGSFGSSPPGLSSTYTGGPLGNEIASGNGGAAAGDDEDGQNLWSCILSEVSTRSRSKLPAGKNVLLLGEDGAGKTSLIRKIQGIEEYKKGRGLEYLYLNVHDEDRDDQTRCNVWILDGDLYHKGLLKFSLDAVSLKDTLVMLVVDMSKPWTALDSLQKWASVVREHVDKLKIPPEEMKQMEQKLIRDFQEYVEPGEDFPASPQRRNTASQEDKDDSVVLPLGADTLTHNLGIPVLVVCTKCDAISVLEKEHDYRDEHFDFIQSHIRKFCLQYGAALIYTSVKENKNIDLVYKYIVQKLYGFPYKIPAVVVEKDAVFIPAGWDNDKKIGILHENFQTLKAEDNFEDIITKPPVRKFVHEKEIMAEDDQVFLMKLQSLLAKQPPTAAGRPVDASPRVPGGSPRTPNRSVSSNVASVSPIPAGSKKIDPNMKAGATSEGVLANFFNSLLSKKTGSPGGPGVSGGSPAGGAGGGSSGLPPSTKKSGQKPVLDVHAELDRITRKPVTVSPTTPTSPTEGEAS

With B1, in test [1], the dissociation constant Kd is ~6.1 µM and the “stoichiometry N” value is ~1.

Consider B2, for which, in test [1], the dissociation constant (Kd) is ~12 µM and the “stoichiometry N” value is ~1.

Consider B3, for which, in test [1], the equilibrium dissociation constant (Kd) is ~3.6 µM and the “stoichiometry N” value was ~1.

B4: LIC1_(433–458), amphipathic helix of the dynein light intermediate chain-1 (peptide, UniProt Q9Y6G9 433-458, looked up)
peptide: NMKAGATSEGVLANFFNSLLSKKTGS
notes: Its concentration was determined with fluorescamine-labeled peptide; also called LIC1 helix; source: peptide after reverse-phase purification
With B4, the Kd in test [2] was ~2 µM; in test [3] it was ~5.4 µM; in test [4], ~1.4 µM.
